Six substances from patent US20110311585A1 can be followed below.

Holding throughout (assay): cell-based or functional assay
The target of assay [1] is HIV-1 envelope glycoprotein gp160, clone 005 from subject 108051, Q655R mutant (HIV-1).
Assay [2] deals with HIV-1 envelope glycoprotein gp160, clone 005 from subject 108069, Q655R mutant (HIV-1).
The target in assay [3] is HIV-1 envelope glycoprotein gp160, clone 022 from subject 108060, Q655R mutant (HIV-1).
The target of assay [4] is HIV-1 envelope glycoprotein gp160, clone 024 from subject 108060, R655Q mutant (HIV-1).

In the case of monoclonal antibody 2G12, the IC50, pseudovirus neutralization in assay [1], in assay [2], in assay [3] and in assay [4] was over 20 µg/mL throughout.

On to “CD4-IgG (from UniProt P01730 26-205) (Fc fusion)”, for which the IC50, pseudovirus neutralization in assay [1] is 5.21 µg/mL; in assay [2] it was 1.08 µg/mL; in assay [3], 0.161 µg/mL; in assay [4], over 20 µg/mL. Moreover, the fold increase in neutralization sensitivity against the parental virus in assay [2] is over 20 fold. The fold increase in neutralization sensitivity against wild-type clone 022 in assay [3] is over 125 fold.

Regarding “broadly neutralizing, CD4 blocking monoclonal antibody (MAb) b12”, the IC50, pseudovirus neutralization in assay [1], in assay [2], in assay [3] and in assay [4] was over 20 µg/mL each time.

Consider “broadly neutralizing monoclonal antibody 4E10”, for which the IC50, pseudovirus neutralization in assay [1] is 1.31 µg/mL; in assay [2], 0.044 µg/mL; in assay [3] it was 0.156 µg/mL; in assay [4], 6.55 µg/mL. The same substance returned a fold increase in neutralization sensitivity against wild-type clone 022 in assay [3] of 30 to 35 fold.

On to enfuvirtide (peptide), for which the IC50, pseudovirus neutralization in assay [1] was determined as 0.036 µg/mL; in assay [2], 0.011 µg/mL; in assay [3] it was 0.004 µg/mL; in assay [4] it was 0.13 µg/mL. Further, the fold increase in neutralization sensitivity against the parental virus in assay [2] is over 17 fold. In assay [3], this substance yielded a fold increase in neutralization sensitivity against wild-type clone 022 of 17 fold.

Consider “broadly neutralizing monoclonal antibody 2F5”, for which the IC50, pseudovirus neutralization in assay [1] is 0.343 µg/mL; in assay [2], 0.052 µg/mL; in assay [3], 0.093 µg/mL; in assay [4] it was 3.43 µg/mL. The fold increase in neutralization sensitivity against wild-type clone 022 in assay [3] lay in the range of 30 to 35 fold.
